Experiments:
Abeta1-42 [1] = target: T1, Abeta1-42 (human); experiment: indirect ELISA, plate coated with Abeta1-42, antibody titrated, anti-mouse IgG-HRP, O.D. 450 nm
T1 construct: coated on plates in the direct ELISA, in solution as analyte in the sandwich ELISA; also called human Abeta 1-42; amyloid-beta 1-42
Description: (§1) Antibody target binding was evaluated by an enzyme-linked immunosorbent assay (ELISA). Briefly, Nunc MaxiSorp 96-well plates (Nunc) were coated for 18 h at 4° C. with 50 μL of 10 pg/mL Abeta1-42 or bovine serum albumin (BSA, Sigma) diluted in PBS. In selected assays, the full-length sAPPalpha fragment (Sigma) was additionally included by coating wells as described above, but at 4 pg/mL (0.04 μM). Plates were then washed 4-times with 300 μL of PBS containing 0.05% Tween20 (Millipore). To block non-specific binding to the plate, freshly prepared solution of PBS containing 0.05% Tween20 and 1% BSA, was added to each well (100 μL/well) and the plates were incubated for 1 h at 37° C. Primary antibodies were diluted to 100 nM in PBS containing 1% BSA and 0.05% Tween20, followed by 3-fold serial dilutions in duplicates. Solutions were added to plates at 50 μL/well and incubated for 1 h at 37° C. Subsequently, the plates were washed 4-times with 300 μL of PBS containing 0.05% Tween20. Plates were then incubated with horseradish peroxidase (HRP) conjugated goat anti-mouse secondary IgG (Abcam) for 1 h at 37° C. […] Finally, optical densities (O.D.) were read at 450 nm absorption wavelength using a Tecan Infinite plate reader. Measured values are expressed as mean O.D. from a duplicate run ±1 standard deviation of the mean (S.D.).

bovine serum albumin = target: T2, bovine serum albumin (bovine, UniProt P02769 25-607); experiment: indirect ELISA, plate coated with BSA, antibody titrated, anti-mouse IgG-HRP, O.D. 450 nm
T2 construct: Negative control antigen; also called BSA
Description: as §1

Abeta1-42 [2] = target: T1, Abeta1-42; experiment: indirect ELISA, Abeta1-42 coated, antibody titrated
Description: (§2) Antibody target binding was evaluated by an enzyme-linked immunosorbent assay (ELISA). Briefly, Nunc MaxiSorp 96-well plates (Nunc) were coated for 18 h at 4° C. with 50 μL of 10 pg/mL Abeta1-42 or bovine serum albumin (BSA, Sigma) diluted in PBS. In selected assays, the full-length sAPPalpha fragment (Sigma) was additionally included by coating wells as described above, but at 4 pg/mL (0.04 μM). Plates were then washed 4-times with 300 μL of PBS containing 0.05% Tween20 (Millipore). To block non-specific binding to the plate, freshly prepared solution of PBS containing 0.05% Tween20 and 1% BSA, was added to each well (100 μL/well) and the plates were incubated for 1 h at 37° C. Primary antibodies were diluted to 100 nM in PBS containing 1% BSA and 0.05% Tween20, followed by 3-fold serial dilutions in duplicates. Solutions were added to plates at 50 μL/well and incubated for 1 h at 37° C. Subsequently, the plates were washed 4-times with 300 μL of PBS containing 0.05% Tween20. Plates were then incubated with horseradish peroxidase (HRP) conjugated goat anti-mouse secondary IgG (Abcam) for 1 h at 37° C. After final wash step (4-times with 300 μL of PBS containing 0.05% Tween20), plates were incubated with 3,3′,5,5′-tetramethylbenzidine (TMB) substrate (BD Biosciences) and reaction stopped with a Stop Solution (Sigma). Finally, optical densities (O.D.) were read at 450 nm absorption wavelength using a Tecan Infinite plate reader. Measured values are expressed as mean O.D. from a duplicate run ±1 standard deviation of the mean (S.D.).

[3] = target: T3, full-length sAPPalpha fragment (UniProt P05067-4 18-612, limits assumed); experiment: indirect ELISA, sAPPalpha coated
T3 construct: domain: sAPPalpha; Bought protein; also called soluble APP alpha; soluble amyloid precursor protein alpha
Description: as §2

[4] = target: T4, Human Abeta1-42 biotinylated at the peptide C-terminus (human, biotin at the peptide C-terminus); experiment: target capture ELISA
T4 construct: also called biotinylated Abeta1-42
Description: Briefly, a Nunc MaxiSorp 96-well plate (Nunc) was coated for 18 h at 4° C. with 50 μL of 5 pg/mL goat anti-mouse IgG, Fc-gamma fragment specific antibody (Jackson Immune Research) diluted in carbonate-bicarbonate buffer. The plate was then washed 4-times with 300 μL of PBS containing 0.05% Tween20 (Millipore). To block non-specific binding to the plate, freshly prepared solution of PBS containing 0.05% Tween20 and 1% BSA, was added to each well (100 μL/well) and the plate was incubated for 1 h at 37° C. […] Subsequently, the plate was washed 4-times with 300 μL of PBS containing 0.05% Tween20. […] After washing 4-times with 300 μL of PBS containing 0.05% Tween20, the plate was incubated for 45 min at ambient temperature with 50 μL/well of streptavidin-HRP (R&D systems) diluted 1:200 in PBS containing 1% BSA and 0.05% Tween20. The plate was again washed 4-times with 300 μL of PBS containing 0.05% Tween20 before incubating at ambient temperature for 20 or 30 min with 50 or 100 μL/well of 3,3′,5,5′-tetramethylbenzidine (TMB) enzyme substrate (BD Bioscience). Reaction was stopped with a 1.2 M HCl (Sigma) solution. Finally, optical densities (O.D.) were read at 450 nm absorption wavelength using a Tecan Infinite plate reader.

T3 sequence (P05067 other isoform, or with tags, fused parts or gaps limits assumed): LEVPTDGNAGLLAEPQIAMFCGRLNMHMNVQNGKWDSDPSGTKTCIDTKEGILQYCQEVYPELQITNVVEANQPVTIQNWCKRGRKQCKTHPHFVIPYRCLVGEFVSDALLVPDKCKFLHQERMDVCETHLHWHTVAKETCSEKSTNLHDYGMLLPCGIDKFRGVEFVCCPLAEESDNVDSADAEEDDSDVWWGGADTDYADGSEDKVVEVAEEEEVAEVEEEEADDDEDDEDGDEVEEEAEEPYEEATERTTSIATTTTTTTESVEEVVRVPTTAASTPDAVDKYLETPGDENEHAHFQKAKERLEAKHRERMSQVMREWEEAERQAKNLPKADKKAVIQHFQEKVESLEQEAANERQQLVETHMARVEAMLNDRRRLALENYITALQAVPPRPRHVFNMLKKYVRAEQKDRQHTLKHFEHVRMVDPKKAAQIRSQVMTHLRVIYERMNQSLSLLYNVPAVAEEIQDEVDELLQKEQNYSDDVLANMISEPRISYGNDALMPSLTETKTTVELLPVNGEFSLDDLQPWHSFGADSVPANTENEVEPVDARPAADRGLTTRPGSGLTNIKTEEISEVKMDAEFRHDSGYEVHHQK

EC50 (read off the curve) (Abeta1-42 [1]): ~0.2 nM | binding result (bovine serum albumin): no binding (tested: 100 nM) | Kd (Abeta1-42 [2]): 0.196 nM | binding result [3]: no binding | binding result [4]: binds
B1: ACI-31-30C11-Ab1 (murine IgG2a with a kappa light chain) (antibody, V domains shown)
VH: QVQLQQSGPELVKPGASVKISCKASGYAFSSSWLNWVKQRPGEGLEWIGRIYPGDGDINYNGKFKGKATLTADKSSSTAYMQLSSLTSDDSAVYFCTKRGRYALDYWGQGTSVTVSS
VL: DIVLTQSPASLAVSLGQRATISCRASKSVDNYGKSFMHWFQQKPGQPPKLLIYRASNLESGIPARFSGSGSRTDFTLTINPVEADDVATYYCQQSNEDPYTFGGGTKLEMKR
notes: also called AC-31-30C11-Ab1
